Measured values as given in article doi:10.1101/2022.11.28.518222.

Biological target: IRF6 (human, UniProt O14896 1-467)
Experiment: EMSA

B1: IRF6 motif trimer EMSA probe (dsDNA)
DNA 1: TGGTTTCGGTTGACTTGGTTTCGGTTGACTTGGTTTCGGTTGA
DNA 2: TCAACCGAAACCAAGTCAACCGAAACCAAGTCAACCGAAACCA
binding result: binds
